The target of one assay is T1, full-length hRpn13 (human, UniProt Q16186 1-407).
T1 construct: hRpn13/Adrm1, human, full-length protein (Pru and DEUBAD domains); The preparation of the full-length protein is not described; it was not held on Talon resin by itself in the pull-down, so it probably carried no His tag; also called hRpn13 full-length protein; Adrm1; source: purified recombinant protein
The experiment in a line: fluorescence polarisation; 10 nM FITC-hRpn2 (940–953) with serially diluted full-length hRpn13; 20 mM sodium phosphate, 50 mM NaCl, pH 6.5; room temperature, 30 min; Hill slope model; also with 100 μM RA190 or 2% DMSO. The following applies: both partners purified.

Assay [1] has as its target T2, hRpn13 (1–150), which includes the Pru domain (human, UniProt Q16186 1-150).
T2 construct: hRpn13/Adrm1, human, residues M1-L150 (Pru domain; N-terminal 19 and C-terminal 20 residues randomly coiled); Isotope-labelled (15N, 13C) in some NMR samples; also called hRpn13 Pru; hRpn13 Pru (1–150); not shown: His tag, N-terminal, cleaved
The experiment in a line: ITC; 25 °C; 200 μM hRpn2 peptide injected into 20 μM or 18 μM hRpn13 Pru in the cell; 20 mM sodium phosphate, 50 mM NaCl, 10 mM βME, pH 7.0; one-site fit. The settings on record: both partners purified. (ITC needs no label: the signal is the heat of the interaction.)

No end group written: not given here. *: point of attachment. FITC‑N3 = fluorescein azide; Pent4ynoyl = C#CCCC(=O)*; AEEA = NCCOCCOCC(=O)O

T2 sequence (Q16186 1-150): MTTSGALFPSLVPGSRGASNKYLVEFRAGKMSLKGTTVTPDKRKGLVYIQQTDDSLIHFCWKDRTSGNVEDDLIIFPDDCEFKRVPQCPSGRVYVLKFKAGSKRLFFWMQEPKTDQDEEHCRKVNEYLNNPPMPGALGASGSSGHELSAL
T1 sequence (Q16186 whole entry, the tested form may be a part): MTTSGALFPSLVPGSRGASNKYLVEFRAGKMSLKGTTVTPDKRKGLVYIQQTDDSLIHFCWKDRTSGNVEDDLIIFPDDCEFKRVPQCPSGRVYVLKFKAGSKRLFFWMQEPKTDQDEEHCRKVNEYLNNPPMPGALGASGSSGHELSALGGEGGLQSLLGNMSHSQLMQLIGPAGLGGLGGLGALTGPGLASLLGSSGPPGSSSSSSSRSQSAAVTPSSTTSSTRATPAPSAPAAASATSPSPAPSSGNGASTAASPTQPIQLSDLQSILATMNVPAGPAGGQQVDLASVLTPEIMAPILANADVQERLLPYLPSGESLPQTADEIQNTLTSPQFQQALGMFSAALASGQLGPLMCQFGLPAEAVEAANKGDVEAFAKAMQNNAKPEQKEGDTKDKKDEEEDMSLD

B1: FITC-hRpn2 (940–953) (peptide)
peptide: {FITC‑N3-Pent4ynoyl-AEEA}-QEPEPPEPFEYIDD
notes: also called FITC-labelled hRpn2 probe; source: synthetic peptide (Fmoc solid-phase synthesis, click coupling to FITC-N3, HPLC purified)
Broadly, the Kd is the free concentration of one partner at which half of the binding sites on the other are occupied at equilibrium, for simple one-to-one binding. High values mean weaker binding, low ones tighter binding. Consider B1, for which the equilibrium dissociation constant (Kd) in the assay with full-length hRpn13 is 14.7 nM.

B2: hRpn2 (940–953) (peptide)
chain: QEPEPPEPFEYIDD
notes: The author contributions say that peptides were synthesized for the DSF experiment, so the DSF sample may be a synthetic peptide of the same limits; also called hRpn2 peptide; hRpn2 fragment; source: E. coli BL21(DE3) pLysS, purified (Glutathione S-sepharose 4B, PreScission cleavage, Superdex75); not shown: GST, N-terminal, cleaved
B2 registered a dissociation constant (Kd) in assay [1] of 27 ± 10 nM.

B3: hRpn2 (944–953) (peptide)
peptide: PPEPFEYIDD
notes: source: synthetic peptide (Fmoc chemistry on Wang resin, HPLC purified)
Molecule B3 gave a Kd in assay [1] of 1960 ± 220 nM.

For the origin of these results see paper PMC5494190, “Structure of the Rpn13-Rpn2 complex provides insights for Rpn13 and Uch37 as anticancer targets” (Nature Communications, 2017).
